The record followed here is patent US20260055369A1, “METHOD FOR GENERATING CELLS OF THE T CELL LINEAGE WITH ENGINEERING BROADLY REACTIVE HUMAN NOTCH LIGAND” (H. Lee Moffitt Cancer Center and Research Institute, Inc., priority 2022, published 2026).

For test [1], the system named is Notch2. The test can be described thus: Notch activation in co-culture format with HEK293T (U2OS luciferase reporter). Type of test: cell-based, human. The note with it: HEK293T expressing full-length ligand, 1:1 ratio; P=0.037. As for the experimental part: (§1) On day one, U2OS reporter cells (signal receiver cells) were detached with trypsin-EDTA, washed with DPBS, and 5×10^5 cells were added to 6-well plates (Falcon) for transfection with luciferase reporter vectors. On day two, U2OS cells were transfected as described above. On day three, signal receiver cells were detached with trypsin-EDTA, and 100 μL of DMEM media containing 20,000 cells were added to tissue culture 96-well plates (Coastar). In parallel, HEK293T-expressing WT DLL4 or Delta^MAX were detached with trypsin-EDTA, counted manually, and dilutions prepared such that 100 μL of DMEM containing 20,000 signal sender cells were added over signal receiver cells (cell ratio 1:1). Doxycycline (Sigma) at 2 μg/mL was used to induce Notch-Gal4 expression. On day four, luciferase firefly and Renilla signals were determined with Dual-Glo luciferase assay system (Promega) using a GloMax luminometer (Promega). A luminescence ratio firefly:Renilla was determined for every well and normalized to the signal of a well containing U2OS reporter cells and HEK293T non-expressing DLL4 ligands. Notch activation is represented as the mean fold-change over the control±s.d. of three independent biological replicates.
Sequence of Notch2 (Q04721 221-530 limits assumed): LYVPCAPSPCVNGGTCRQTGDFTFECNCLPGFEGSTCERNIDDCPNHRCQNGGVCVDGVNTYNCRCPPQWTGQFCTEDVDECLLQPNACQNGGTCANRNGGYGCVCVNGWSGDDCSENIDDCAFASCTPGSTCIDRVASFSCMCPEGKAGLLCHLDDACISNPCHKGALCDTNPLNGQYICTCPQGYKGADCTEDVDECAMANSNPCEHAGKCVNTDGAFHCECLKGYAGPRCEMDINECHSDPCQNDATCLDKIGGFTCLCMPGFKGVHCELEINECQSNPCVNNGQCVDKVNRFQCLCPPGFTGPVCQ

Test [2] deals with Notch3. The test is described as above. It is filed as cell-based, human. The note with it: HEK293T expressing full-length ligand, 1:1 ratio. As for the experimental part:
as §1

The subject of test [3] is Notch1. The description is as above. The note with it: HEK293T expressing full-length ligand, 1:1 ratio. Type of test: cell-based, human. As for the experimental part:
as §1
Target sequence in this assay (P46531 19-1664 limits assumed): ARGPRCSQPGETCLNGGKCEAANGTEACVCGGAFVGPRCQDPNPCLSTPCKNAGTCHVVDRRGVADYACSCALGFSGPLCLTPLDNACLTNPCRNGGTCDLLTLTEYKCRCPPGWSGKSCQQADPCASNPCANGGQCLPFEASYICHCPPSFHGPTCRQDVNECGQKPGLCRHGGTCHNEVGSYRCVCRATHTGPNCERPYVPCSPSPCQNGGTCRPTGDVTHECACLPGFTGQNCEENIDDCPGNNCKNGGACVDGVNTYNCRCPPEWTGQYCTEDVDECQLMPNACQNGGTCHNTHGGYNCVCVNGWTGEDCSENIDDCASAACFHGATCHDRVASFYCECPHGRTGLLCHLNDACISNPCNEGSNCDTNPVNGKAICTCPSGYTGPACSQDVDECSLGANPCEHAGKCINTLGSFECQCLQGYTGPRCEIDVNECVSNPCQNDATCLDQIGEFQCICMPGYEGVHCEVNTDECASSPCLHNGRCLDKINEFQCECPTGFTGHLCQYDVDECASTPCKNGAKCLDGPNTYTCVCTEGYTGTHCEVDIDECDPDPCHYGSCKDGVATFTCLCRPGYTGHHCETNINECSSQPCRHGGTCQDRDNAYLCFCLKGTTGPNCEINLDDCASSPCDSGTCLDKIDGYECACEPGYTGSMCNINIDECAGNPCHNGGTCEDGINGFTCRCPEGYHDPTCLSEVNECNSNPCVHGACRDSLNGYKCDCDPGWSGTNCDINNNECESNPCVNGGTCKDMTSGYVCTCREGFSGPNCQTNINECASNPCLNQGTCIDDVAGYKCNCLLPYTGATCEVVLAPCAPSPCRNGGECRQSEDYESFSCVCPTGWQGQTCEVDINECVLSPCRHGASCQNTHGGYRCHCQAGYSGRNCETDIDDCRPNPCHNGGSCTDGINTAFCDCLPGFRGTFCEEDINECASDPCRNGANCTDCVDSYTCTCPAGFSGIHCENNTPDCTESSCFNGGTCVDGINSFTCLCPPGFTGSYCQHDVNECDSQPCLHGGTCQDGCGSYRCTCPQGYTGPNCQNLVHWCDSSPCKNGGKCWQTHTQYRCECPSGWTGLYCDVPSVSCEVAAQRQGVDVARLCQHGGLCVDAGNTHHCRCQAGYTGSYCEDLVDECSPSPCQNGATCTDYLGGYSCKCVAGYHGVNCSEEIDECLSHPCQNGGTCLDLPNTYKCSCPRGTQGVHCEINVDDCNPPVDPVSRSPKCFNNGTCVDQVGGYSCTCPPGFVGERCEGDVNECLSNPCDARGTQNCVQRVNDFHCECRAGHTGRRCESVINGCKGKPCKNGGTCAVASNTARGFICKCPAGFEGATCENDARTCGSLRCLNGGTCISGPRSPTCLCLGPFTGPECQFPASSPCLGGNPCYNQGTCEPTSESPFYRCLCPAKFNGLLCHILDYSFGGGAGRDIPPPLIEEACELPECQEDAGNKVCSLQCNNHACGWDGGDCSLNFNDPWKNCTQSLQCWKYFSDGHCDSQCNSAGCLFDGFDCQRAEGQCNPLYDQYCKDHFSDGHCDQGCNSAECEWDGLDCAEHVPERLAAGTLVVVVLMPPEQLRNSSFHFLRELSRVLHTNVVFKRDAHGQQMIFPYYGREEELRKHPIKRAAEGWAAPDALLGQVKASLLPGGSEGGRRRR
Target sequence in this assay (P46531 1665-1756 limits assumed): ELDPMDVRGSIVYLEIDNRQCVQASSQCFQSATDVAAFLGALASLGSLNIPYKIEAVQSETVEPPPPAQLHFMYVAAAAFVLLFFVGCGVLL

The test system of test [4] is Notch1. Description: Notch inhibition assay in co-culture format (CHO-K1 N1-Gal4 with HEK293T expressing WT DLL4). It is filed as cell-based. The note with it: co-culture 1:1 with HEK293T expressing WT DLL4; read-out: IC50 for inhibition of Notch1 activation by cellular DLL4. As for the experimental part: For inhibition of CHO-K1 N1-Gal4 cells with DAPT and Delta^MAX, the experiment was set-up following the protocol described above with the exception that CHO-K1 N1-Gal4 reporters were incubated with HEK293T-expressing WT DLL4 for Notch activation. Three-fold serial dilutions of soluble Delta^MAX and DAPT were prepared in DPBS starting at 6,000 nM. For DAPT, a stock solution of 100 μM in 8% DMSO was prepared before serial dilutions in DPBS. Appropriate DMSO controls were also assayed for cytotoxicity. Final DMSO concentration in the wells was maintained below 1%. Thirty thousand signal senders and pre-blocked signal receivers (100 μL each) were incubated for 24 hours at 37° C. and 5% CO2 before analysis by flow cytometry. Maximum Notch activation (100%) was set in the absence of soluble inhibitors and normalized to wells containing CHO-K1 N1-Gal4 cells and HEK293T lacking expression of WT DLL4. Mean fluorescence intensity is represented as percentage relative to Notch activation in the absence of inhibitors±s.d. of three independent biological replicates.

Test [5] deals with full-length, cell surface-expressed Notch1. Description: Tetramer binding to Notch1 overexpressing CHO-K1 N1-Gal4 cells by flow cytometry. The note with it: tetramers. From the text: Extended Data FIG. 5. Quantitation of mNotch1 binding to DLL4 variants, ligand adsorption, and Notch surface expression. a, SPR binding isotherms were fitted to a 1:1 binding model to determine the binding affinity between mNotch1 (6-13) and each DLL4 variant. b, Determination of plate adsorption for WT DLL4 and Delta^MAX by ELISA. Data represent mean values±s.d. of three biological replicates. c, Binding assay of WT DLL4 and Delta^MAX tetramers to Notch1 overexpressing CHO-K1 N1-Gal4 cells was measured by flow cytometry. Data represent mean values±s.d. of three biological replicates. d, The level of Notch1 expression on the surface of cell lines used in this study was determined by flow cytometry. Data represent mean values±s.d. of three biological replicates. e, Percentage of CD8^+ T cells expressing Notch1 (upper graph) and Notch2 (bottom graph) on cell surface determined by flow cytometry after stimulation with K32-WT DLL4, K32-Delta^MAX, or K32 for 96 hours. Data represent mean values±s.e.m. of three biological replicates. Delta^MAX statistics are referred to WT DLL4. *P<0.05, ****P<0.0001 (Two-way ANOVA).
Sequence of full-length, cell surface-expressed Notch1 (P46531 19-1664 limits assumed): as the sequence (P46531 19-1664 limits assumed) above
Sequence of full-length, cell surface-expressed Notch1 (P46531 1665-1756 limits assumed): as the sequence (P46531 1665-1756 limits assumed) above

In test [6] the target is T1, Notch4 (7-12) (Homo sapiens, UniProt Q99466).
T1 construct: hNotch4 (EGF7-12, residues 276-511); gp67 signal peptide (N); made in house; host or cells: HiFive Trichoplusia ni insect cells (baculovirus)
T1 sequence (Q99466 276-511): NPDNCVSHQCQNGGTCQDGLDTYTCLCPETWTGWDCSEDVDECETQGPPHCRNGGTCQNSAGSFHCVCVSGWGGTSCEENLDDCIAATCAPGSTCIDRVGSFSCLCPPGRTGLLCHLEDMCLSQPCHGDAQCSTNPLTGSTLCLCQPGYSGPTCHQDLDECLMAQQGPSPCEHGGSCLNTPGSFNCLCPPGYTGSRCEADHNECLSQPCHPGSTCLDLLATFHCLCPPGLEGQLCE
Description: SPR determination of equilibrium dissociation constants. Type of test: binding. As for the experimental part: Equilibrium dissociation constants were determined by surface plasmon resonance using a Biacore T200 instrument (GE Healthcare). Approximately 100 resonance units (RU) of biotinylated Notch extracellular fragments (Notch1 (EGF6-13), Notch2 (EGF6-13), Notch3 (EGF5-12), Notch4 (7-12), and mouse Notch1 (EGF6-13)) were immobilized on individual flow cells at 5 μl/min using a streptavidin-coated sensor chip (Series S Sensor chip SA, GE Healthcare). Three-fold serial dilutions of recombinant DLL4 proteins (N-EGF5) starting at 50 μM (WT DLL4), 18 μM (DLL4.v2), and 6 μM (DLL4.v1 and Delta^MAX) were flowed over the chip at 25° C. in SPR buffer (20 mM HEPES pH 7.4, 150 mM NaCl, 1 mM calcium chloride, 0.1% BSA supplemented with 0.005% surfactant P20). Association (“on-rate”) and dissociation (“off-rate”) phases were performed at 10 μl/min for 120 seconds and 300 seconds, respectively. The sensor chip was regenerated after each injection with 30-second washes of 2.25M Magnesium Chloride containing 25% Ethylene Glycol at 50 μL/min. Data collection rate was performed at 10 Hz, and curves were reference-subtracted from a flow cell containing 100 RU of a negative control non-related protein (biotinylated mouse RNF43 PA domain). The maximum RU for each experiment was normalized to a value of 100% and plotted as a function of concentration using Prism 9 software (GraphPad). Steady-state binding and kinetic curves were fitted using the Biacore T200 evaluation software to a 1:1 Langmuir model to determine the KD values.

By IC50 is commonly meant the concentration that gives 50% inhibition.

Sequence of Notch3 (Q9UM47 197-505 limits assumed): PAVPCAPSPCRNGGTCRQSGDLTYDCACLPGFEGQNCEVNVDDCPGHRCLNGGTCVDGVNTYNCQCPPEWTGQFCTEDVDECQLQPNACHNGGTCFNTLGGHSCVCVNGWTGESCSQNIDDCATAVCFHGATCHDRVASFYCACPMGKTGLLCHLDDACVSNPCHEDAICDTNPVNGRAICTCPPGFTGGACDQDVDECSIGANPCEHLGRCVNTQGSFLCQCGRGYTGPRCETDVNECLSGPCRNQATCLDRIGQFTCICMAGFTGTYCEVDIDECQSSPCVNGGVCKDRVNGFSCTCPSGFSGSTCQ

B1: Delta^MAX: engineered human DLL4 consensus variant with 10 mutations combining DLL4.v1 and DLL4.v2 mutations; sequence matches SEQ ID NO: 4/10 (protein)
chain: SSVFQLQLQEFINERGVLASGRPCEPGCRTFFRVCLKHFQAVVSPGPCTFGTVSTPVLGTNSFAVRDDSSGGGRNPLQLPLNFTWPGTFSLIIEAWHAPGDDLRPEALPPDALISKFAIQGSLAVGQNWLLDEQTSTLTRLRYSYRVICSDNYYGDNCSRLCKKRNDYFGHYVCQPDGNPSCLPGWTGEYCQQPICLSGCHEQNGYCSKPAECLCRPGWQGRLCNECIPHPGCRHGTCSTPWQCLCDEGWGGLYCDQDLNYCTHHSPCKNGATCRNSGPRSYTCTCRPGYTGVDCELELSECDSNPCRNGGSCKDQEDGYHCLCPPGYYGLHCEHSTLSCADSPCFNGGSCRERNQGANYACECPPNFTGSNCE
Regarding B1, the “Notch2 activation compared to unstimulated cells” value in test [1] is “significant level of Notch2 activation”. In addition, the “Emax of signaling vs WT DLL4” value in test [2] and in test [3] was roughly 2 fold each time. Also, the 50% inhibitory concentration (IC50) in test [4] is 400 nM. In test [5], the “increase of mean fluorescence intensity (MFI) of binding compared to WT DLL4” value worked out at 4.7 fold. Moreover, the “enhancement of affinity compared to WT DLL4” value in test [6] is listed as 532 fold.
